The values below come from article doi:10.1101/2020.10.14.337170.

Read-outs that look alike come from different tables or passages of the source.

Assay [1] deals with SNAP-6HIS-3FLAG-KKT4 (KKT4^2–645) (Trypanosoma brucei). The experiment in a line: SEC-MALS.
Assay [2] deals with Leishmania mexicana KKT4^184–284 (Leishmania mexicana). The experiment in a line: crystal structure.
Assay [3] has as its target Trypanosoma cruzi (Sylvio X10) KKT4^117–218 (Trypanosoma cruzi (Sylvio X10)). The experiment in a line: crystal structure.
In assay [4] the target is KKT4^101–352 (Trypanosoma brucei). The experiment in a line: SEC-MALS. A general note: Size exclusion chromatography separates by hydrodynamic size, large species first.
For assay [5], the target named is KKT4^2–114 (Trypanosoma brucei). The experiment in a line: SEC-MALS.
For assay [6] the target is unchanged. The experiment in a line: SEC-MALS. The source holds these as a separate data set.
Assay [7] has as its target Fluorescently-labelled phosphopeptide derived from KKT8 (Trypanosoma brucei). The experiment in a line: fluorescence polarisation. For orientation: In fluorescence polarisation assays a small probe gives low polarisation when free and higher when bound to something large.

A word on the stoichiometry N: it is the number of molecules, sites or subunits per partner or assembly. With “SNAP-6HIS-3FLAG-KKT4 (KKT4^2–645) (natural protein)”, the stoichiometry N in assay [1] was found to be 4. On to “Leishmania mexicana KKT4^184–284 (domain or fragment)”, for which the stoichiometry N in assay [2] was 2.

As for “Trypanosoma cruzi (Sylvio X10) KKT4^117–218 (domain or fragment)”, the stoichiometry N in assay [3] is 2. For the substance KKT4^101–352 (domain or fragment), in assay [4], the stoichiometry N was found to be 2.

For KKT4^2–114 (domain or fragment), the stoichiometry N in assay [5] was determined as 3; in assay [6], 4. As usually defined, the Kd is the concentration at which binding is half-saturated. As to “KKT4^463–645 (KKT4 BRCT domain) (domain or fragment)”, the Kd in assay [7] amounted to 30 µM.
